Measured values published in article PMC5768893.

B1: PKCζ: Ogt KD (protein)
parent chain: MPSRTDPKMDRSGGRVRLKAHYGGDILITSVDAMTTFKDLCEEVRDMCGLHQQHPLTLKWVDSEGDPCTVSSQMELEEAFRLVCQGRDEVLIIHVFPSIPEQPGMPCPGEDKSIYRRGARRWRKLYRANGHLFQAKRFNRGAYCGQCSERIWGLSRQGYRCINCKLLVHKRCHVLVPLTCRRHMDSVMPSQEPPVDDKNDGVDLPSEETDGIAYISSSRKHDNIKDDSEDLKPVIDGVDGIKISQGLGLQDFDLIRVIGRGSYAKVLLVRLKKNDQIYAMKVVKKELVHDDEDIDWVQTEKHVFEQASSNPFLVGLHSCFQTTSRLFLVIEYVNGGDLMFHMQRQRKLPEEHARFYAAEICIALNFLHERGIIYRDLKLDNVLLDADGHIKLTDYGMCKEGLGPGDTTSTFCGTPNYIAPEILRGEEYGFSVDWWALGVLMFEMMAGRSPFDIITDNPDMNTEDYLFQVILEKPIRIPRFLSVKASHVLKGFLNKDPKERLGCRPQTGFSDIKSHAFFRSIDWDLLEKKQTLPPFQPQITDDYGLDNFDTQFTSEPVQLTPDDEDVIKRIDQSEFEGFEYINPLLLSAEESV
B2: PKCζ: Thiamet G (protein)
parent chain: B1 parent chain
B3: PKCζ: PUGNAc (protein)
parent chain: B1 parent chain
B4: PKCζ: T408A (protein)
parent chain: B1 parent chain

How the values were obtained:
[1] = western blot and immunostaining, anti-pT410, endogenous PKCζ; settings: glycan lost; control: control (Egfp shRNA) ESCs
[2] = western blot anti-pT410 after FGF4 stimulation; settings: glycan lost; control: control cells stimulated with FGF4
[3] = western blot anti-pT410 during PrE differentiation; settings: glycan gained; control: PrE day 4 cells without inhibitor
[4] = anti-FLAG IP, anti-pT410 blot; settings: glycan gained; control: untreated PKCζ-FLAG cells
[5] = western blot of phosphorylated PKCζ-FLAG; settings: glycan lost; control: wild-type PKCζ-FLAG

Row | Protein | other: PKCζ Thr-410 phosphorylation [1] | other: PKCζ Thr-410 phosphorylation [2] | other: PKCζ Thr-410 phosphorylation [3] | other: PKCζ Thr-410 phosphorylation [4] | other: PKCζ phosphorylation [5]
1 | B1 | increases | increases |  |  | 
2 | B2 |  |  | decreases | decreases | 
3 | B3 |  |  | decreases | decreases | 
4 | B4 |  |  |  |  | no change
